The results in this text go back to the domain aggregation screens of Martell et al. (2025).
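Note: 20 min heating vs room temperature control held 20 min.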

A short description of this data set: soluble fraction after stress (log2 fold change); higher = more stays soluble; pooled small domains, quantitative proteomics. Conditions: stress: 75 degC.
Regarding “HMDLVESYDLKIIYTSELINLLIDSSRLEEALNLFKDLKDEIDDVENLGFSAKNNLDYMESKLLHLG”, the “soluble fraction (log2)” value was -1.94.
In the case of “HMDLYIILGLERSATLSDVRRAYRRLARKYHPGINPGDRNSASVFTRVSEAYQVLSDPEQRRRYDSR”, the “soluble fraction (log2)” value was -2.84.
Turning to “HMDMDRRALLLALINDRYHASVAEFARAINKAPAQVHQWLSGNRALGNAGARDIEIRLNLAQGYFDH”, the “soluble fraction (log2)” value is -2.16.
Take “HMDMQMPIMNGLEFLERINLTLDDNFSIIVLTGKIEDKSIEKSFELGINAYLRKPFNIYALLGIVRQN”: the “soluble fraction (log2)” value was -0.135.
In the case of “HMDMSDFEVVRDMYLTGKVWNAGDIVEAKGITGEVVRKGTNYLSFVDKNGKVHKAWLHEIEL”, the “soluble fraction (log2)” value was -0.197.
For “HMDNAILQELYDYYKEDPSLSQSELIISMLTRIQEAVGYVSKDVQEEVARLAGVNRGYVAAIIKNLPHL”, the “soluble fraction (log2)” value was -1.17.
Consider “HMDNEYDKVYQAALSKLEGYPRSSITTAVIKDVVAQTIKYFEIKNFGYEDTIINQLQSAFTVKSSS”, for which the “soluble fraction (log2)” value is -0.0883.
For “HMDNLSESQIKAYSSILSRTHEISDLAENKDYLAFSLWIANILRDPQSVREETAKRVFSALHTNTDFK”, the “soluble fraction (log2)” value was -0.984.
With “HMDNMFMPPVNGWDVRQALQKLQNEMGLQVKMEYSPSETITEGYVISYTPIDGMKVEKGDEVTLVISTGPE”, the “soluble fraction (log2)” value was -0.0359.
For “HMDNMTEMQKAVTALIEKSGGSIDNLSVIYDHLKKKYPSFDLKDYGYSRFSSFLRSMENIMVRGNAVTLRS” the value was -0.211; for “HMDNPPDRAEIEQMLKDAGLTPEADAMAALSDLARTLDPGDFRQTLEKITLYKLGDSTPIGLDDIAAGAP”, 0.0465; for “HMDNQSIVRINDGDGAWRQRLGEHFGHLPRDRKRGEIVLQVDAADWRWLQTQGYAPRFDAALSAQLQTTL”, -0.479.
For “HMDNVLGKSGKVIFVNEEINSYGRAFIPGHGEWNIRTKSDQNIHINDGIKVIERDGITLVVEL” the value was -1.26.
With “HMDNVQLRNFAIKATEASIIYLDQEQRNFFWYNNNKKLMTVPFDENPYSAFAAYLKTDEGSEVYKAIEKKF”, the “soluble fraction (log2)” value was -1.97.
As for “HMDNWAALLSEREVQVSRLVANGASNKEIADHLAITERTVKAHLTAVFEKLGVRDRLQLSLRVNGL”, the figure is -3.94; as for “HMDPALSPAEQKIWDLLAAGETHIDDLVRASGLPVATVNSALVMMEMKEVISQVAAKTYRRNRRN”, -1.3; as for “HMDPEARRRAILNAAIDVIVEKGAAALTHRAVAARAGVSLGSTTKYFSSIEDLRENAMDALVREMD”, -0.496.
Consider “HMDPEEQIQSREIWEAVERALDGMQEKGRRVVIALLEGQTQLEVSRAAGISQPLISYYLKSFRTKVRTELG”, for which the “soluble fraction (log2)” value was -0.73.
For the sequence “HMDPEIADAVNTIKKYLESHYSEVITRKKIEELVHLNQDHINREFKKQTGYTLMEYVQHYRILMAKKMLRV”, the “soluble fraction (log2)” value is -0.576.
For “HMDPEQLKIAINTKMPFGKYSGRPLLLLPEPYLVWFKQQGFPDSKLGSQLAMMYEVKLNGLEQMLMPLL”, the “soluble fraction (log2)” value is -0.665.
Take “HMDPERLDQLQNPDPAVRREAIIALGRSKDLAALPELAKVYKNDPVPELRELARQAGRYIQQENRP”: the “soluble fraction (log2)” value was determined as 0.00398.
As for “HMDPFVILGISKDSSQSEILEAYKTKRAYYQEHVFDEGDQGAQAARMLGQLDDAYQQAMELSHE”, the figure is 0.0281; as for “HMDPKISWESDEKLSANIGHYENSIKPLMGNKYLIELSQLKDKIESHPWVARATIKRIFWNKIHIQLESHD”, -0.0642.
Turning to “HMDPKWSHVRRLLDDENPIVRKALTEELIRSPEEGLAFLEQVIREPDHLLAKHAHNLLSELGWV”, the “soluble fraction (log2)” value was found to be 0.192.
As for “HMDPLGHVIKKKRLQLGMTLRDLAAKAGVHHATIDRIETDQFKVVDPSTLVKIAEALHLDQLYLLSLN”, the “soluble fraction (log2)” value is -0.666.
For “HMDPLPDEVQEVIDMVDGFKAMDELSEADKADVKAAYDAYNALSAEHKAMVPEHIVTFLNRAYDKLFD”, the “soluble fraction (log2)” value worked out at 0.159.
For the sequence “HMDPPVDLTPREQQVLSRIALGMSDKAIAAELGVSHQTVRNHVARIYAKIKVHSRSQAIVWAREKGIP”, the “soluble fraction (log2)” value was -2.36.
As to “HMDPSKMKIDELEIATRTATALADGGIKSVAGLIRKSASALKELDGVGDKAIAEITEALEKLGLELKG”, the “soluble fraction (log2)” value was 0.106.
For “HMDPSWVPVFNNLRDAILSHQLLPGTRLAEDELSNIYGLGRTVIRSALGALTHEGLLTHIPNRGVHVAKP” the value was -1.16; for “HMDPTIAAIRKKLKNWTIVEVHMTREELEQAVIDGKVDVFLSSAGFYRRLVRFGARDLATAMSPAYPD”, -0.68.
As for “HMDPTYYFNLYPNPSKDEVSLFTNFTGKINIEILDLAGKSILSDNPISTISLVSLKEGLYLVKVKS”, the “soluble fraction (log2)” value is -0.178.
On to “HMDPYLSGLLQKLAETDKKISFTRLRSEDLDGESREAIYEFIEKYSGRFGVRWLLNEFGLSPSVYYNYLHS”, for which the “soluble fraction (log2)” value was -0.727.
Regarding “HMDQDLGFLINKYFELGKDYNTLVEIYEKIKEYIASIDKKMLEYTKNFTIEQLKKWLDDGTINNIILTLG”, the “soluble fraction (log2)” value is -0.122.
Consider “HMDQEDAYMQVRQVFDTLLVSELSKRIFAWRFFEGKSFAEWPGAESQKFLYDTFNRILLIISAKIRRKNA”, for which the “soluble fraction (log2)” value was -0.0464.
“HMDQHERQQLLIHIAGGEREALAELYQRTRSAVYGLALSYLKNAHDAQDLTRDVYVQVWDRA”: the “soluble fraction (log2)” value was -0.0158.
“HMDQQTKFKTALAALAASAETKDRKLTKADVKEFLEDMDLGEEQMKLVYAYLASKHIHVEGAE”: the “soluble fraction (log2)” value was at least 1.04.
Consider “HMDQSIDADIINLNFSKNIIKIEENVYYKNNNAKVNADKIEINIETKKLKISMNEQEDEVEIFAK”, for which the “soluble fraction (log2)” value came out at 0.552.
For the sequence “HMDQTIFFGQQKAINNLSTDAGLSATELDEYLKKRYKRPLYQLTQAEGAEIIKGFQDGALSRSSILDYTK”, the “soluble fraction (log2)” value was 0.0434.
As for “HMDRKFFFNEQYEDYINSDLKVKFMNDSGSKKSFQGELTKVTPSDLFLESEKESVKVPFSSIIQANLI”, the figure is -0.197.
As to “HMDRLTISTLGNGLFRVNGAEAEATVYNLSGNVVKVVPADEVIDLSSLAKGVYIIHVDGEAFKVI”, the “soluble fraction (log2)” value was -1.13.
Turning to “HMDRMFQPETWSKIYQWVMNDPQVPDKEDVLALIRRHFGNFEKLIKLLHYLDGGKPYAYLSEH”, the “soluble fraction (log2)” value is -0.473.
For “HMDRSLYVGDAVGFDSARGLMEIEVKNKFSVVAVSLKKKPSGNFITPLLRMEKKKGEAVTVAPGSGHR” the value was -0.514.
“HMDRSQRDQEQAQLIRLVQQAFDDSGQRYGAEKIRITLAEGGIRVSTKRIAAIMQELDLRSI”: the “soluble fraction (log2)” value is -2.41.
For the sequence “HMDRSRAEIDLGHVETAIRTLAEGGMVQEYAIGGRSLKRYKMGELLQLKAELENEINMERRKEKMRQ”, the “soluble fraction (log2)” value turned out to be 0.212.
For “HMDRVDGWLHDGKLYLRVVDYKTGKKSFDLAELRYGLGLQMLLYLFTLKEEGQMLFGGHEIVPAGVL” the value was -0.514; for “HMDRVSEITLTRLRDYAADGQVRTATLTHRTNVVTGTLRDGRRFSAGVPPMYGDELTTFLLDNGVRVDSDN”, -0.41; for “HMDSDMGQQLKTLLTVGTFMSSKELKAIAQQLGLKKPTDLKEWVELESGTQRIEGKPTKGYWIKMNDINN”, -0.367.
“HMDSGINVWASAEGLTITADKDTTVYVYDIYGRTIHTSEVKAGTSDIAINTKGIVIVKANGYTKKII”: the “soluble fraction (log2)” value was -1.77.
On to “HMDSILSIVGGEESYKALLAWAENNISQQELQQLETILKSGNVPAIKRVLVTLMNRFNQAQS”, for which the “soluble fraction (log2)” value is -0.114.
For “HMDSINGEASISRELHGTRFDQAAAILFPEFSRSRLQAWIGAGALTLDGQTARAKDKVTQGQHLVLAAAVE” the value was -0.54.
